Patent US20100129369A1
Each block holds one substance with its values, some of them ahead of it.

Assays:
human c-Met (human) = human c-Met (human) (UniProt P08581); experiment: cell-based or functional assay
[1] = target: human c-Met ECD-Fc-Flis (human); experiment: HGF-blocking ELISA: HGF signal on coated c-Met ECD-Fc-Flis; Ab 7.63 ng/mL
[2] = target: human c-Met ECD-Fc-Flis (human); experiment: HGF-blocking ELISA: HGF signal on coated c-Met ECD-Fc-Flis; Ab 0.48 ng/mL
[3] = target: human c-Met ECD-Fc-Flis (human); experiment: HGF-blocking ELISA: HGF signal on coated c-Met ECD-Fc-Flis; Ab 1953.13 ng/mL
[4] = target: human c-Met ECD-Fc-Flis (human); experiment: HGF-blocking ELISA: HGF signal on coated c-Met ECD-Fc-Flis; Ab 488.28 ng/mL
[5] = target: human c-Met ECD-Fc-Flis (human); experiment: HGF-blocking ELISA: HGF signal on coated c-Met ECD-Fc-Flis; Ab 31250.00 ng/mL
[6] = target: human c-Met ECD-Fc-Flis (human); experiment: HGF-blocking ELISA: HGF signal on coated c-Met ECD-Fc-Flis; Ab 30.52 ng/mL
[7] = target: human c-Met ECD-Fc-Flis (human); experiment: HGF-blocking ELISA: HGF signal on coated c-Met ECD-Fc-Flis; Ab 122.07 ng/mL
[8] = target: human c-Met ECD-Fc-Flis (human); experiment: HGF-blocking ELISA: HGF signal on coated c-Met ECD-Fc-Flis; Ab 7812.50 ng/mL
[9] = target: human c-Met ECD-Fc-Flis (human); experiment: HGF-blocking ELISA: HGF signal on coated c-Met ECD-Fc-Flis; Ab 1.91 ng/mL
[10] = target: human c-Met ECD-Fc-Flis (human); experiment: HGF-blocking ELISA: HGF signal on coated c-Met ECD-Fc-Flis; Ab 0.00 ng/mL (HGF only)
[11] = target: human c-Met ECD-Fc-Flis (human); experiment: HGF-blocking ELISA: HGF signal on coated c-Met ECD-Fc-Flis; Ab 125000.00 ng/mL

Chain of human c-Met ECD-Fc-Flis (human) (chain, as listed by the source): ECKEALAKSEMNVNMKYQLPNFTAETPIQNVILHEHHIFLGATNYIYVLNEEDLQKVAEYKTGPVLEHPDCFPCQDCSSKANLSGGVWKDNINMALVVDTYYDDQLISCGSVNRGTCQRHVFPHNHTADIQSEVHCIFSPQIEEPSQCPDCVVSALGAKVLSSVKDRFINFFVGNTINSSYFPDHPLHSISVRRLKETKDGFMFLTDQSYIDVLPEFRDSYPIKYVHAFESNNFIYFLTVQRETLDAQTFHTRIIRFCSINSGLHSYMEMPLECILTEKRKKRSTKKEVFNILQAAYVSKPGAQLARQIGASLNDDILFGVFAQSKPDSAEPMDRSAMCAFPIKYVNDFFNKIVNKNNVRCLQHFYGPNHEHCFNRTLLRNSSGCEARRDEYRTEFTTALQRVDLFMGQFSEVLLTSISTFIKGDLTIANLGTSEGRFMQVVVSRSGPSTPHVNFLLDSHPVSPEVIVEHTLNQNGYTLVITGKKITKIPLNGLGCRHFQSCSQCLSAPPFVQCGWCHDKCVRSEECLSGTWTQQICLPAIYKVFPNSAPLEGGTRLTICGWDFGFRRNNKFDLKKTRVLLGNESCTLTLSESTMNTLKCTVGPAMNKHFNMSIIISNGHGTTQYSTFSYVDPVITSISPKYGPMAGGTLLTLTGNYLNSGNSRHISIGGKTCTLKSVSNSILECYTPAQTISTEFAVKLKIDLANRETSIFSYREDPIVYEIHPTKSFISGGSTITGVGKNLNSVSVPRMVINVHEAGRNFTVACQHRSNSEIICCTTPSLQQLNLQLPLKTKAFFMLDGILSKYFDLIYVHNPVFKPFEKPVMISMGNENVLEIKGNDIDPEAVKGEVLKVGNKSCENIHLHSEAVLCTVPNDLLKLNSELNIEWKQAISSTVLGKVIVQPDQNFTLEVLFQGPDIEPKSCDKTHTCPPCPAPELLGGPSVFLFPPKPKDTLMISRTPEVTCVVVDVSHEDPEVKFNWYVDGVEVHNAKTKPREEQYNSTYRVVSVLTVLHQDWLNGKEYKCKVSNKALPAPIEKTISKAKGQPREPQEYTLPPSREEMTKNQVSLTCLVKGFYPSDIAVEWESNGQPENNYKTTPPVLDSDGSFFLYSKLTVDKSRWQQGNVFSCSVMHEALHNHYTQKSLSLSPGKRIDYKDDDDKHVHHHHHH
Chain of human c-Met (human) (P08581 25-1390): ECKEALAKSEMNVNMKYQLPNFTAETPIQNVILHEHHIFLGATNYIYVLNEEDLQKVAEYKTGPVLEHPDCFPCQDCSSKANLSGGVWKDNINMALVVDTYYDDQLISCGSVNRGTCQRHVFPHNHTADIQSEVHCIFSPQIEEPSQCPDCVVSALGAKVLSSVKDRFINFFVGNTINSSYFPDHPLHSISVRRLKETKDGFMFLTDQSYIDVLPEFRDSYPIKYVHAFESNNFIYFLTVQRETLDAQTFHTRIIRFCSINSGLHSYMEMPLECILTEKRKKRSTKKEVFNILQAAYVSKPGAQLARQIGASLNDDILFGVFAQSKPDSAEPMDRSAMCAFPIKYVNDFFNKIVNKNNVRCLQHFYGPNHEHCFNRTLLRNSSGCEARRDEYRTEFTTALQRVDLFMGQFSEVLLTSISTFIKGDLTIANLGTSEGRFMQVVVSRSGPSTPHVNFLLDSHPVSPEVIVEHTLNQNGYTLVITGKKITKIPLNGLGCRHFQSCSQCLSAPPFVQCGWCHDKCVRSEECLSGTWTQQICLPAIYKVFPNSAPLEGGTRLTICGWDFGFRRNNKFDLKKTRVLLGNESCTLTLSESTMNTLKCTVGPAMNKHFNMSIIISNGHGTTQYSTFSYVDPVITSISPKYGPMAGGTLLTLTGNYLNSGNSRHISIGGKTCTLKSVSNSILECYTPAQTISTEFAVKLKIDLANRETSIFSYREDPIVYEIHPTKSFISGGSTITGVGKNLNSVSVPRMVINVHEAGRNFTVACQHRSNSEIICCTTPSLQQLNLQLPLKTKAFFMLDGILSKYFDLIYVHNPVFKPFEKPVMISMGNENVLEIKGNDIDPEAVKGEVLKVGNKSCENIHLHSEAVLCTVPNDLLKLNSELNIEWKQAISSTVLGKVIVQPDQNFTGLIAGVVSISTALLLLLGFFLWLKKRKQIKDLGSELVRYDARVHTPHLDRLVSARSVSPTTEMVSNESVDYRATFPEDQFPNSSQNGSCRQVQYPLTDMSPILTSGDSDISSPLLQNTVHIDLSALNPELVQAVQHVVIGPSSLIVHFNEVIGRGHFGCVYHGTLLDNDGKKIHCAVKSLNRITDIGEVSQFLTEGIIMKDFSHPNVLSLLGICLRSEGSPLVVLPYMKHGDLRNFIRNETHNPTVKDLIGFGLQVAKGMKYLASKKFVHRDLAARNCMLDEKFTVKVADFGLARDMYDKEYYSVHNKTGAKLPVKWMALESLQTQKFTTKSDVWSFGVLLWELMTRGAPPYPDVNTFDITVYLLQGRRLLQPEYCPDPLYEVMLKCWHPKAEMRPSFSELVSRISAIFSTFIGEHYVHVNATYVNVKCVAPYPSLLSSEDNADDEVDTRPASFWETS

% inhibition of HGF stimulated phospho-Met (ELISA, HCT116 cells), Ab 0.0032 µg/mL (human c-Met (human)): -9.76% | % inhibition of HGF stimulated phospho-Met (ELISA, HCT116 cells), Ab 0.016 µg/mL (human c-Met (human)): -5.42% | % inhibition of HGF stimulated phospho-Met (ELISA, HCT116 cells), Ab 0.08 µg/mL (human c-Met (human)): -10.6% | % inhibition of HGF stimulated phospho-Met (ELISA, HCT116 cells), Ab 0.4 µg/mL (human c-Met (human)): 13.4% | % inhibition of HGF stimulated phospho-Met (ELISA, HCT116 cells), Ab 2 µg/mL (human c-Met (human)): 9.76% | % inhibition of HGF stimulated phospho-Met (ELISA, HCT116 cells), Ab 10 µg/mL (human c-Met (human)): 5.46% | AVG CPM, 3H-thymidine incorporation in MKN45 cells, Ab 0.0 ng/mL (no antibody) (human c-Met (human)): 50300 CPM | AVG CPM, 3H-thymidine incorporation in MKN45 cells, Ab 0.1 ng/mL (human c-Met (human)): 47700 CPM | AVG CPM, 3H-thymidine incorporation in MKN45 cells, Ab 0.4 ng/mL (human c-Met (human)): 51500 CPM | AVG CPM, 3H-thymidine incorporation in MKN45 cells, Ab 2.6 ng/mL (human c-Met (human)): 55500 CPM | AVG CPM, 3H-thymidine incorporation in MKN45 cells, Ab 15.4 ng/mL (human c-Met (human)): 51300 CPM | AVG CPM, 3H-thymidine incorporation in MKN45 cells, Ab 92.6 ng/mL (human c-Met (human)): 52200 CPM | AVG CPM, 3H-thymidine incorporation in MKN45 cells, Ab 555.6 ng/mL (human c-Met (human)): 54700 CPM | AVG CPM, 3H-thymidine incorporation in MKN45 cells, Ab 3333.3 ng/mL (human c-Met (human)): 53700 CPM | AVG CPM, 3H-thymidine incorporation in MKN45 cells, Ab 20000.0 ng/mL (human c-Met (human)): 52400 CPM | Mean Fluorescence (c-Met left on the surface of MKN45 cells, FACS), Ab 5.00 ug/mL (human c-Met (human)): 136
Substance: murine IgG isotype control antibody

3H-Thymidine Incorporation in Caki-1 Cells in the Absence of HGF (AVG CPM), antibody dose 0.1 ng/mL (human c-Met (human)): 14400 CPM | 3H-Thymidine Incorporation in Caki-1 Cells in the Absence of HGF (AVG CPM), antibody dose 0.4 ng/mL (human c-Met (human)): 12900 CPM | 3H-Thymidine Incorporation in Caki-1 Cells in the Absence of HGF (AVG CPM), antibody dose 2.6 ng/mL (human c-Met (human)): 12500 CPM | 3H-Thymidine Incorporation in Caki-1 Cells in the Absence of HGF (AVG CPM), antibody dose 15.4 ng/mL (human c-Met (human)): 11700 CPM | 3H-Thymidine Incorporation in Caki-1 Cells in the Absence of HGF (AVG CPM), antibody dose 92.6 ng/mL (human c-Met (human)): 15600 CPM | 3H-Thymidine Incorporation in Caki-1 Cells in the Absence of HGF (AVG CPM), antibody dose 555.6 ng/mL (human c-Met (human)): 20000 CPM | 3H-Thymidine Incorporation in Caki-1 Cells in the Absence of HGF (AVG CPM), antibody dose 3333.3 ng/mL (human c-Met (human)): 19000 CPM | 3H-Thymidine Incorporation in Caki-1 Cells in the Absence of HGF (AVG CPM), antibody dose 20000.0 ng/mL (human c-Met (human)): 19900 CPM | 3H-Thymidine Incorporation in Primary Human Hepatocytes in the Absence of HGF (average), dose 0.0032 ug/mL (human c-Met (human)): 822 | 3H-Thymidine Incorporation in Primary Human Hepatocytes in the Absence of HGF (average), dose 0.016 ug/mL (human c-Met (human)): 1720 | 3H-Thymidine Incorporation in Primary Human Hepatocytes in the Absence of HGF (average), dose 0.08 ug/mL (human c-Met (human)): 3320 | 3H-Thymidine Incorporation in Primary Human Hepatocytes in the Absence of HGF (average), dose 0.4 ug/mL (human c-Met (human)): 3760 | 3H-Thymidine Incorporation in Primary Human Hepatocytes in the Absence of HGF (average), dose 2 ug/mL (human c-Met (human)): 4910 | 3H-Thymidine Incorporation in Primary Human Hepatocytes in the Absence of HGF (average), dose 10 ug/mL (human c-Met (human)): 4980 | % inhibition of HGF stimulated phospho-Met (ELISA, HCT116 cells), Ab 0.0032 µg/mL (human c-Met (human)): -6.07% | % inhibition of HGF stimulated phospho-Met (ELISA, HCT116 cells), Ab 0.016 µg/mL (human c-Met (human)): -3.5% | % inhibition of HGF stimulated phospho-Met (ELISA, HCT116 cells), Ab 0.08 µg/mL (human c-Met (human)): 11.9% | % inhibition of HGF stimulated phospho-Met (ELISA, HCT116 cells), Ab 0.4 µg/mL (human c-Met (human)): 42.5% | % inhibition of HGF stimulated phospho-Met (ELISA, HCT116 cells), Ab 2 µg/mL (human c-Met (human)): 63.8% | % inhibition of HGF stimulated phospho-Met (ELISA, HCT116 cells), Ab 10 µg/mL (human c-Met (human)): 64.1% | AVG CPM, 3H-thymidine incorporation in MKN45 cells, Ab 0.0 ng/mL (no antibody) (human c-Met (human)): 50300 CPM | AVG CPM, 3H-thymidine incorporation in MKN45 cells, Ab 0.1 ng/mL (human c-Met (human)): 51900 CPM | AVG CPM, 3H-thymidine incorporation in MKN45 cells, Ab 0.4 ng/mL (human c-Met (human)): 49600 CPM | AVG CPM, 3H-thymidine incorporation in MKN45 cells, Ab 2.6 ng/mL (human c-Met (human)): 55000 CPM | AVG CPM, 3H-thymidine incorporation in MKN45 cells, Ab 15.4 ng/mL (human c-Met (human)): 49800 CPM | AVG CPM, 3H-thymidine incorporation in MKN45 cells, Ab 92.6 ng/mL (human c-Met (human)): 39600 CPM | AVG CPM, 3H-thymidine incorporation in MKN45 cells, Ab 555.6 ng/mL (human c-Met (human)): 39500 CPM | AVG CPM, 3H-thymidine incorporation in MKN45 cells, Ab 3333.3 ng/mL (human c-Met (human)): 38200 CPM | AVG CPM, 3H-thymidine incorporation in MKN45 cells, Ab 20000.0 ng/mL (human c-Met (human)): 35100 CPM | H441 Scratch Assay, Avg. %, antibody 10 ug/mL (human c-Met (human)): 244% | HepG2 Cell Invasiveness, Average Cell Number Per 2.5x Field, antibody 10.00 ug/mL (cells per 2.5x field) (human c-Met (human)): 85 | Mean Fluorescence (c-Met left on the surface of MKN45 cells, FACS), Ab 5.00 ug/mL (human c-Met (human)): 92.9 | Percent of DU145 Cells in Colonies (scatter assay), antibody 20 ug/mL (human c-Met (human)): 14.4% | Tube Formation in ECFC Cells, Total Tube Area (Avg.), antibody 10 ug/mL (human c-Met (human)): 147000 | Tubular Morphogenesis Agonist activity (fold stimulation) in HepG2 cells, antibody 50 ug/ml (fold stimulation) (human c-Met (human)): 4.9 | p-Met signal (pY1349 ELISA, A549 cells), Ab Conc. 5 (ng/mL as printed) (human c-Met (human)): 3.29
Substance: Murine IgG1 c-Met antibody 5D5

% inhibition of HGF stimulated phospho-Met (ELISA, HCT116 cells), Ab 0.0032 µg/mL (human c-Met (human)): -14.4% | % inhibition of HGF stimulated phospho-Met (ELISA, HCT116 cells), Ab 0.016 µg/mL (human c-Met (human)): -7.96% | % inhibition of HGF stimulated phospho-Met (ELISA, HCT116 cells), Ab 0.08 µg/mL (human c-Met (human)): -21.7% | % inhibition of HGF stimulated phospho-Met (ELISA, HCT116 cells), Ab 0.4 µg/mL (human c-Met (human)): -16.1% | % inhibition of HGF stimulated phospho-Met (ELISA, HCT116 cells), Ab 2 µg/mL (human c-Met (human)): -6.62% | % inhibition of HGF stimulated phospho-Met (ELISA, HCT116 cells), Ab 10 µg/mL (human c-Met (human)): -1.47% | AVG CPM, 3H-thymidine incorporation in MKN45 cells, Ab 0.0 ng/mL (no antibody) (human c-Met (human)): 48700 CPM | AVG CPM, 3H-thymidine incorporation in MKN45 cells, Ab 0.1 ng/mL (human c-Met (human)): 53900 CPM | AVG CPM, 3H-thymidine incorporation in MKN45 cells, Ab 0.4 ng/mL (human c-Met (human)): 55300 CPM | AVG CPM, 3H-thymidine incorporation in MKN45 cells, Ab 2.6 ng/mL (human c-Met (human)): 54800 CPM | AVG CPM, 3H-thymidine incorporation in MKN45 cells, Ab 15.4 ng/mL (human c-Met (human)): 53800 CPM | AVG CPM, 3H-thymidine incorporation in MKN45 cells, Ab 92.6 ng/mL (human c-Met (human)): 54300 CPM | AVG CPM, 3H-thymidine incorporation in MKN45 cells, Ab 555.6 ng/mL (human c-Met (human)): 54200 CPM | AVG CPM, 3H-thymidine incorporation in MKN45 cells, Ab 3333.3 ng/mL (human c-Met (human)): 54000 CPM | AVG CPM, 3H-thymidine incorporation in MKN45 cells, Ab 20000.0 ng/mL (human c-Met (human)): 50600 CPM | Mean Fluorescence (c-Met left on the surface of MKN45 cells, FACS), Ab 5.00 ug/mL (human c-Met (human)): 135 | p-Met signal (pY1349 ELISA, A549 cells), Ab 0.002 µg/mL (human c-Met (human)): 0.117 | p-Met signal (pY1349 ELISA, A549 cells), Ab 0.005 µg/mL (human c-Met (human)): 0.074 | p-Met signal (pY1349 ELISA, A549 cells), Ab 0.014 µg/mL (human c-Met (human)): 0.074 | p-Met signal (pY1349 ELISA, A549 cells), Ab 0.041 µg/mL (human c-Met (human)): 0.268 | p-Met signal (pY1349 ELISA, A549 cells), Ab 0.123 µg/mL (human c-Met (human)): 0.067 | p-Met signal (pY1349 ELISA, A549 cells), Ab 0.370 µg/mL (human c-Met (human)): 0.082 | p-Met signal (pY1349 ELISA, A549 cells), Ab 1.113 µg/mL (human c-Met (human)): 0.087 | p-Met signal (pY1349 ELISA, A549 cells), Ab 3.333 µg/mL (human c-Met (human)): 0.068 | p-Met signal (pY1349 ELISA, A549 cells), Ab 10 µg/mL (human c-Met (human)): 0.077 | p-Met signal (pY1349 ELISA, A549 cells), Ab 30 µg/mL (human c-Met (human)): 0.061 | AVG A450 nm [1]: 2.88 A450 nm | AVG A450 nm [2]: 2.41 A450 nm | AVG A450 nm [3]: 2.27 A450 nm | AVG A450 nm [4]: 2.44 A450 nm | AVG A450 nm [5]: 2.67 A450 nm | AVG A450 nm [6]: 2.63 A450 nm | AVG A450 nm [7]: 2.44 A450 nm | AVG A450 nm [8]: 2.49 A450 nm | AVG A450 nm [9]: 2.49 A450 nm | AVG A450 nm [10]: 2.61 A450 nm | AVG A450 nm [11]: 3 A450 nm
Substance: humanized IgG4 isotype control antibody
